Patent publication US20090018093
Read-outs that look alike come from different tables or passages of the source.

Experiments:
[1] = test system: Immunoglobulin E (IgE) (Homo sapiens), P01854-1; experiment: filter
[2] = test system: Immunoglobulin E (IgE) (Homo sapiens), P01854-1; experiment: inhibition
[3] = dRmY: 2'-deoxy A,G, 2'-OMe C,U, 1xPBS, BSA, tRNA, ssDNA, 25 C
[4] = 2'-OMe C,U, deoxy A,G, FACS, 15 nM IgE

Sequence of Immunoglobulin E (IgE) (Homo sapiens), P01854-1 (P01854 other isoform, or with tags, fused parts or gaps): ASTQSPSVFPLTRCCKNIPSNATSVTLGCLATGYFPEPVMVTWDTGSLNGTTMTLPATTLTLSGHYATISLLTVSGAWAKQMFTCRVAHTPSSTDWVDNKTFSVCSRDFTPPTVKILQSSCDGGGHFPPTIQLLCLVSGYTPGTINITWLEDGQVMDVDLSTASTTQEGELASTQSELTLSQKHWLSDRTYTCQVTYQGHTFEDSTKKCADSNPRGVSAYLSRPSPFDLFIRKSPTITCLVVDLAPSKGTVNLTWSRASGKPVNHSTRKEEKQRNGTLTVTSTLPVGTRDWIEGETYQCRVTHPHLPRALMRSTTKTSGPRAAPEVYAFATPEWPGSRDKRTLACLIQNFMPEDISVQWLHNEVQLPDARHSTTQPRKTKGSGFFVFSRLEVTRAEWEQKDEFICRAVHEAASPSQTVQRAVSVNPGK

For AGCCUGGGGACCCAUGGGGGGCU [ARC1572], the Kd ([1]; 2'-OMe/2'-deoxy mix, PS linkages as in Table 17, 3' idT [phosphorothioate linkages (internal N, left out) between 5-6, 7-8, 8-9, 15-16, 17-18, 18-19, 19-20, 20-21, 2'-OMe/2'-deoxy mix (positions not given), 3' inverted dT at 24], DPBS Mg/Ca, 0.1 mg/mL BSA, RT) was 0.3 nM and the IC50 ([2]; 2'-OMe/2'-deoxy mix, PS linkages as in Table 17, 3' idT [phosphorothioate linkages (internal N, left out) between 5-6, 7-8, 8-9, 15-16, 17-18, 18-19, 19-20, 20-21, 2'-OMe/2'-deoxy mix (positions not given), 3' inverted dT at 24], FACS, 2.5 nM IgE) was 22.8 nM.

With “GGGAAAAGCGAAUCAUACACAAGAGGUCUUACAGAUCCUGUGUAGUGGUUCGAUACAUGCGGGGCUCCGCCAGAGACCAACCGAGAA [rRfY clone SEQ 14]” the Kd ([1]; 2'-F C and U, biphasic, KD2 99.5 nM, 1xSHMCK + tRNA, RT) was 1.08 nM and the IC50 ([2]; 2'-F C,U, ELISA FceR1-Fc, FACS 17.3 nM (Table 25)) was 26.8 nM.

In the case of UAGCCUGGGGACCCAUGGGGGGCUA [ARC446], the Kd [1, 3] is reported as 43 nM and the IC50 [2, 4] is reported as 33.8 nM.

Sequence GCCUGGGGACCCAUGGGGGGC [ARC444] has a Kd [1, 3] of 73 nM and an IC50 [2, 4] of 52.4 nM.

In the case of “GGCGGCAGCTTTATCCGTACCTCCCAGTGGGCTGCTCC [DNA clone SEQ 149]”, the Kd [1] is reported as 0.8 nM and the IC50 ([2]; FACS, 15 nM IgE) is reported as 55.9 nM.

“GGGGCTACTTTATCCGTTCCTCCTAGTGGGTAGCCCC [ARC480]” gave a Kd [1] of 0.2 nM and an IC50 ([2]; FACS, 15 nM IgE) of 9.7 nM.

GUUCUGGGGACCCAUGGGGGAAC [ARC442] was tested, and the Kd ([1]; dRmY: 2'-deoxy A,G, 2'-OMe C,U, 1xPBS, BSA, 1 mg/mL tRNA, ssDNA, 25 C) was 174 nM and the IC50 [2, 4] was 58.9 nM.

Sequence AGCCUGGGGACCCAUGGGGGGCU [ARC1337] has a Kd ([1]; as printed dA-s-mGmCmCmUdGmGdGdG-s-mAmCmCmCmAmU-s-dG-s-mGdGdGdG-s-dGmCmU-3T [deoxy: 1,6,8,9,16,18-21, 2'-OMe: 2-5,7,10-15,17,22,23, phosphorothioate after 1,9,15,16,20 (also after 18 per given string), 24 = 3' inverted dT], dPBS Ca/Mg + BSA, RT) of 0.2 nM and an IC50 ([2]; 2'-OMe/2'-deoxy mix, PS, 3' idT [PS after 1,9,15,16,18,20, 2'-OMe/2'-deoxy mix, 3' idT left out], FACS, 2.5 nM IgE) of 4.7 nM.

AGCCUGGGGACCCAUGGGGGGCU [ARC1382] showed a Kd ([1]; 2'-OMe/2'-deoxy mix, PS linkages as in Table 17, 3' idT [phosphorothioate linkages (internal N, left out) between 8-9, 18-19, 20-21, 2'-OMe/2'-deoxy mix (positions not given), 3' inverted dT at 24], DPBS Mg/Ca, 0.1 mg/mL BSA, RT) of 1.1 nM and an IC50 ([2]; 2'-OMe/2'-deoxy mix, PS linkages as in Table 17, 3' idT [phosphorothioate linkages (internal N, left out) between 8-9, 18-19, 20-21, 2'-OMe/2'-deoxy mix (positions not given), 3' inverted dT at 24], FACS, 2.5 nM IgE) of 6.9 nM.

“GGGAAAAGCGAAUCAUACACAAGACGUCAGUAAGAUUGAGUGUAUGGUUCCUGGUGGACAAUAAUGGCUCCGCCAGAGACCAACCGAGAA [rRfY clone SEQ 21]” gave a Kd ([1]; 2'-F C and U, biphasic, KD2 27.1 nM, 1xSHMCK + tRNA, RT) of 0.183 nM and an IC50 ([2]; 2'-F C,U, ELISA FceR1-Fc, FACS 14.4 nM (Table 25)) of 3.7 nM.

With “GGGGCTACTTTATCCGTACCTCCCAGTGGGTAGCCCC [ARC476]” the Kd [1] was 0.2 nM and the IC50 ([2]; FACS, 15 nM IgE) was 17.4 nM.

“GGGGCTACTTTATCCGTCCCTCCTAGTGGGTAGCCCC [ARC475]” was tested, and the Kd [1] was 0.5 nM and the IC50 ([2]; FACS, 15 nM IgE) was 17.1 nM.

For AGCCUGGGGACCCAUGGGGGGCU [ARC1642], the Kd ([1]; 2'-OMe/2'-deoxy mix, dI16,dI20, PS, 3' idT [16=dI, 20=dI (G parent), 24=3' inverted dT, phosphorothioate linkage N's left out], DPBS Mg/Ca, 0.1 mg/mL BSA, RT) was 0.4 nM and the IC50 ([2]; 2'-OMe/2'-deoxy mix, dI16,dI20, PS, 3' idT [16=dI, 20=dI (G parent), 24=3' inverted dT, phosphorothioate linkage N's left out], FACS, 2.5 nM IgE) was 1.8 nM.

With “GGGAAAAGCGAAUCAUACACAAGAGUCGCUAGAUUGCUAGUGUAUGGUUUAUCUAAAGGCGGCCGCUCCGCCAGAGACCAACCGAGAA [rRfY clone SEQ 13]” the Kd ([1]; 2'-F C and U, biphasic, KD2 14.6 nM, 1xSHMCK + tRNA, RT) was 0.139 nM and the IC50 ([2]; 2'-F C,U, ELISA FceR1-Fc, FACS 10.3 nM (Table 25)) was 4.3 nM.

Work on “NNAGCCUGGGNGACCCAUNNNGNNGNNGCUN [ARC1788]” yielded an IC50 ([2]; ARC1666 chemistry, 5' 60 kDa branched PEG, 3' idT, FACS, IgE-FceR1 on SX38 cells) of 1.2 nM.

Sequence “GGGGCTACTTTATCCGTTCCTCCTAGTGGGTAGCCCC [ARC656]” has an IC50 ([2]; 3' idT [3' idT left out], FACS, 2.5 nM IgE, histamine release IC50 16.9 nM) of 21.2 nM.

In the case of “NNAGCCUGGGNGACCCAUNNNGNNGNNGCUN [ARC1787]”, the IC50 ([2]; ARC1666 chemistry, 5' 40 kDa branched PEG, 3' idT, FACS, IgE-FceR1 on SX38 cells) is reported as 1.2 nM.

Work on AGCCUGGGGACCCAUGGGGGGCU [ARC1785] yielded an IC50 ([2]; ARC1666 chemistry, 5' and 3' 20 kDa PEG [dI at 16,18,20 (written as parent G), PS after 8,15,16,18,20, 2'-OMe/2'-deoxy mix (ARC1666 chemistry), 5' and 3' amine linker-20 kDa PEG left out], FACS, IgE-FceR1 on SX38 cells) of 2 nM.

“GGGGCTACTTUATCCGTTCCTCCTAGTGGGTAGCCCC [ARC1275]” was tested, and the Kd ([1]; 2'-OMe U at 11, 3' idT [11 (2'-OMe U), 38 (3' inverted dT)], DPBS Mg/Ca, BSA) was 0.3 nM.

For AGCCUGGGGACCCAUGGGGGGCU [ARC2981], the Kd ([1]; ARC1666 pattern plus PS between A14 and U15, 3' idT [dI (written G) at 16,18,20, 2'-OMe 1-5,7,10-15,17,22,23, deoxy 6,8,9,16,18-21, PS 8/9,14/15,15/16,16/17,18/19,20/21, 3' inverted dT left out], dPBS Ca/Mg + BSA, RT) was 0.02 nM.

AGCCUGGGGACCCAUGGGGGGCU [ARC1250] was tested, and the Kd ([1]; 2'-OMe C,U and A1, other A,G deoxy, 3' idT [2'-OMe: 1,3,4,5,11,12,13,15,22,23, 2'-deoxy: 2,6,7,8,9,10,14,16,17,18,19,20,21, 24 = 3' inverted dT], dPBS Ca/Mg + BSA, RT) was 11 nM.

“GGGGCTACTTTATCCGUTCCTCCTAGTGGGTAGCCCCN [ARC1281]” gave a Kd ([1]; 2'-OMe U at 17, 3' idT, DPBS Mg/Ca, BSA) of 0.1 nM.

AGCCUGGGNGACCCAUNNNGNNGNNGCUN [ARC3268] gave a Kd ([1]; ARC1666 chemistry with 2'-OMe G8,G9,I16, 3' idT, DPBS Mg/Ca, BSA, RT) of 0.6 nM.

“GGGGCTACTTTATCCGTTCCTCCTAGTGGGTAGCCCCT [ARC1267]” gave a Kd ([1]; 2'-OMe at 3, 3' idT [3 (2'-OMe G), 38 (3' inverted dT)], DPBS Mg/Ca, BSA) of 0.1 nM.

With “AGCCUGGGNGACCCAUNNNGNNGNNGCUNN [ARC2369]” the Kd ([1]; ARC1666 pattern, 3'-NH-PEG20K, no idT, dPBS Ca/Mg + BSA, RT) was 0.03 nM.

Work on “AGCCUGGGNGACCNCAUNNNGNNGNNGCUN [ARC2979]” yielded a Kd ([1]; ARC1666 chemistry + PS 12-13, 3' idT, DPBS Mg/Ca, BSA, RT) of 0.05 nM.

Sequence “GGGGCTACTTTATCCGTUCCTCCTAGTGGGTAGCCCCN [ARC1282]” has a Kd ([1]; 2'-OMe U at 18, 3' idT, DPBS Mg/Ca, BSA) of 0.2 nM.

Sequence “GGGGCTACTTTATCCGTTCCTCCTAGTGGGTAGCCCCT [ARC1298]” has a Kd ([1]; 2'-OMe at 34, 3' idT [2'-OMe: 34, 38 = 3' inverted dT], DPBS Mg/Ca, BSA) of 0.4 nM.

“GGGAGAGGAGAGAACGUUCUACAGGCAGUUCUGGGGACCCAUGGGGGAAGUGCGCUGUCGAUCGAUCGAUCGAUG [ARC1991]” gave a Kd ([1]; dRmY: 2'-deoxy A,G, 2'-OMe C,U, error 2, dPBS Ca/Mg + 0.1 mg/mL BSA, RT, 87.7 nM with 1 mg/mL tRNA + ssDNA competitor (p280)) of 2 nM.

For “GGGGCTACTTTATCCGTTCCTCCTAGTGGGTAGCCCC [ARC1415]”, the Kd ([1]; 2'-OMe at 1-4,7,33-37, multiple PS as printed, 3' idT [2'-OMe at 1-4,7,33-37, PS 9-10,12-13,14-15,18-19,21-22,24-25,27-28,30-31, 3' idT cap after 37 (left out)], DPBS Mg/Ca, BSA) was 1.2 nM.

AGUAGCCUGGGGACCCAUGGGGGGCUACU [ARC3276] showed a Kd ([1]; mAmGmUmAmGmCmCmUdGmGdG-s-dGmAmCmCmCmAmU-s-dI-s-mGdI-s-dGdI-s-dGmCmUmAmCmU [dI (written G) at 19,21,23, 2'-OMe 1-8,10,13-18,20,25-29, deoxy 9,11,12,19,21-24, PS 11/12,18/19,19/20,21/22,23/24, 3' inverted dT left out], dPBS Ca/Mg + BSA, RT) of 0.03 nM.

AGCCUGGGGACCCAUGGGGGGCU [ARC1790] gave an IC50 ([2]; ARC1666 chemistry, 5' and 3' 30 kDa PEG [dI at 16,18,20 (written as parent G), PS after 8,15,16,18,20, 2'-OMe/2'-deoxy mix (ARC1666 chemistry), 5' and 3' amine linker-30 kDa PEG left out], FACS, IgE-FceR1 on SX38 cells) of 0.89 nM.

“GGGGCTACTTTATCCGTTCCTCCTAGTGGGTAGCCCCT [ARC1304]” showed a Kd ([1]; 2'-OMe at 1-4,34-37, 3' idT [2'-OMe: 1-4,34-37, 38 = 3' inverted dT], DPBS Mg/Ca, BSA) of 0.6 nM.

With AGCCUGGGGACCCAUGGGGGGCU [ARC1565] the Kd ([1]; ARC1335 chemistry with dI19 as printed, 3' idT [19=dI (G parent), 24=3' inverted dT], DPBS Mg/Ca, 0.1 mg/mL BSA, RT) was 1.4 nM.

For “GGGAGAGGAGAGAACGUUCUACACUCUGGGGACCCGUGGGGGAGUGCAGCAACGCUGUCGAUCGAUCGAUCGAUG [ARC2005]”, the Kd ([1]; dRmY: 2'-deoxy A,G, 2'-OMe C,U, error 3, dPBS Ca/Mg + BSA, RT) was 5 nM.

AGCCUGGGGACCCAUGGGGGGCU [ARC1254] showed a Kd ([1]; 2'-OMe C,U and G8, other A,G deoxy, 3' idT [2'-OMe: 3,4,5,8,11,12,13,15,22,23, 2'-deoxy: 1,2,6,7,9,10,14,16,17,18,19,20,21, 24 = 3' inverted dT], dPBS Ca/Mg + BSA, RT) of 24 nM.

Work on AGCCUGGGGACCCAUGGGGGGCU [ARC1258] yielded a Kd ([1]; 2'-OMe C,U and G16, other A,G deoxy, 3' idT [2'-OMe: 3,4,5,11,12,13,15,16,22,23, 2'-deoxy: 1,2,6,7,8,9,10,14,17,18,19,20,21, 24 = 3' inverted dT], dPBS Ca/Mg + BSA, RT) of 15 nM.

For “AGCCUNGGGNGACCCAUNNNGNNGNNGCUN [ARC2973]”, the Kd ([1]; ARC1666 chemistry + PS 5-6, 3' idT, DPBS Mg/Ca, BSA, RT) was 0.05 nM.

Work on “GGGGCUACTTTATCCGTTCCTCCTAGTGGGUAGCCCC [ARC1303]” yielded a Kd ([1]; 2'-OMe stem block as printed in Table 18, 3' idT [2'-OMe: stem block (exact positions not given in the material), 38 = 3' inverted dT], DPBS Mg/Ca, BSA) of 1.3 nM.
